Positions of bridges follow the written chain, without caps; N, C: chain ends. Non-standard residues stand in square brackets, D forms with d. Hyp = O=C(O)[C@@H]1C[C@@H](O)CN1; Pen = CC(C)(S)[C@H](N)C(=O)O; Orn = NCCC[C@H](N)C(=O)O; Thz = O=C(O)[C@@H]1CSCN1; Dab = NCC[C@H](N)C(=O)O; Aib = CC(C)(N)C(=O)O
Assays:
[1] = molecular target: human melanocortin 1 receptor (human, UniProt Q01726 1-317); experiment: cell-based or functional assay
[2] = molecular target: human melanocortin 4 receptor (human, UniProt P32245 1-332); experiment: cell-based or functional assay
Sequence of human melanocortin 4 receptor (P32245 whole entry): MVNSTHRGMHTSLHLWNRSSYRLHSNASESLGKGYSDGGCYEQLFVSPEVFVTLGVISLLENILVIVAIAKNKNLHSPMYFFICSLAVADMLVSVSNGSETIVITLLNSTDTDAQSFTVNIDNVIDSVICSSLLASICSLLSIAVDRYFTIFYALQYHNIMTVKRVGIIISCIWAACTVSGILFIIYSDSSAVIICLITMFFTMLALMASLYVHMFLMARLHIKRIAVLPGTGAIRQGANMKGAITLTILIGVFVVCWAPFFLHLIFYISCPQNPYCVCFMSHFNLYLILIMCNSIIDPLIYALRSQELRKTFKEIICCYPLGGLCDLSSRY

Sequence of human melanocortin 1 receptor (Q01726 whole entry): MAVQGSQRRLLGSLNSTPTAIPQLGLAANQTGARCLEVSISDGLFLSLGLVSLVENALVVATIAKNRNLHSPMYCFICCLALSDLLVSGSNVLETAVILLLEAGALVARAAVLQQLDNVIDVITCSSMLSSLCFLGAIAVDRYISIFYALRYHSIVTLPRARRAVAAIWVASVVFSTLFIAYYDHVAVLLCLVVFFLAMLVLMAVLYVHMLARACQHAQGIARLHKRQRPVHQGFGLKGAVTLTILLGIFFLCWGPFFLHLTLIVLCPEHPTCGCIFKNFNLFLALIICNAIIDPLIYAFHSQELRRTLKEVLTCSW

Binder	MC1R cAMP EC50 [1]	MC4R cAMP EC50 [2]
cyclo(CH[dF]RW[dA]CH[dF]RW[dA]) (disulfide 1-7; SMILES C[C@H]1NC(=O)[C@H](Cc2c[nH]c3ccccc23)NC(=O)[C@H](CCCNC(=N)N)NC(=O)[C@@H](Cc2ccccc2)NC(=O)[C@H](Cc2c[nH]cn2)NC(=O)[C@@H]2CSSC[C@H](NC1=O)C(=O)N[C@@H](Cc1c[nH]cn1)C(=O)N[C@H](Cc1ccccc1)C(=O)N[C@@H](CCCNC(=N)N)C(=O)N[C@@H](Cc1c[nH]c3ccccc13)C(=O)N[C@H](C)C(=O)N2) [Chem. 6]	2.35 nM	–
cyclo(C[dK]H[dF]HWC[dK]H[dF]HW) (disulfide 1-7; SMILES NCCCC[C@H]1NC(=O)[C@@H]2CSSC[C@H](NC(=O)[C@H](Cc3c[nH]c4ccccc34)NC(=O)[C@H](Cc3c[nH]cn3)NC(=O)[C@@H](Cc3ccccc3)NC(=O)[C@H](Cc3c[nH]cn3)NC1=O)C(=O)N[C@H](CCCCN)C(=O)N[C@@H](Cc1c[nH]cn1)C(=O)N[C@H](Cc1ccccc1)C(=O)N[C@@H](Cc1c[nH]cn1)C(=O)N[C@@H](Cc1c[nH]c3ccccc13)C(=O)N2) [Chem. 86]	147 nM	–
cyclo(C[Thz]H[dF]HWCARERR) (disulfide 1-7; SMILES C[C@@H]1NC(=O)[C@@H]2CSSC[C@H](NC(=O)[C@H](CCCNC(=N)N)NC(=O)[C@H](CCCNC(=N)N)NC(=O)[C@H](CCC(=O)O)NC(=O)[C@H](CCCNC(=N)N)NC1=O)C(=O)N1CSC[C@H]1C(=O)N[C@@H](Cc1c[nH]cn1)C(=O)N[C@H](Cc1ccccc1)C(=O)N[C@@H](Cc1c[nH]cn1)C(=O)N[C@@H](Cc1c[nH]c3ccccc13)C(=O)N2) [Chem. 113]	42.2 nM	0.02 nM
cyclo(C[Thz]H[dF]HWCKA[dK]AW) (disulfide 1-7; SMILES C[C@@H]1NC(=O)[C@H](CCCCN)NC(=O)[C@@H]2CSSC[C@H](NC(=O)[C@H](Cc3c[nH]c4ccccc34)NC(=O)[C@H](C)NC(=O)[C@@H](CCCCN)NC1=O)C(=O)N1CSC[C@H]1C(=O)N[C@@H](Cc1c[nH]cn1)C(=O)N[C@H](Cc1ccccc1)C(=O)N[C@@H](Cc1c[nH]cn1)C(=O)N[C@@H](Cc1c[nH]c3ccccc13)C(=O)N2) [Chem. 114]	114 nM	0.04 nM
cyclo(C[Thz]H[dF]HWCK[Orn]AAW) (disulfide 1-7; SMILES C[C@@H]1NC(=O)[C@H](C)NC(=O)[C@H](CCCN)NC(=O)[C@H](CCCCN)NC(=O)[C@@H]2CSSC[C@H](NC(=O)[C@H](Cc3c[nH]c4ccccc34)NC1=O)C(=O)N1CSC[C@H]1C(=O)N[C@@H](Cc1c[nH]cn1)C(=O)N[C@H](Cc1ccccc1)C(=O)N[C@@H](Cc1c[nH]cn1)C(=O)N[C@@H](Cc1c[nH]c3ccccc13)C(=O)N2) [Chem. 115]	134 nM	0.1 nM
cyclo(C[Thz]H[dF]HWC[Orn][Orn]AAW) (disulfide 1-7; SMILES C[C@@H]1NC(=O)[C@H](C)NC(=O)[C@H](CCCN)NC(=O)[C@H](CCCN)NC(=O)[C@@H]2CSSC[C@H](NC(=O)[C@H](Cc3c[nH]c4ccccc34)NC1=O)C(=O)N1CSC[C@H]1C(=O)N[C@@H](Cc1c[nH]cn1)C(=O)N[C@H](Cc1ccccc1)C(=O)N[C@@H](Cc1c[nH]cn1)C(=O)N[C@@H](Cc1c[nH]c3ccccc13)C(=O)N2) [Chem. 116]	231 nM	0.12 nM
cyclo(C[Thz]H[dF]HW[Pen]KKAAW) (disulfide 1-7; SMILES C[C@@H]1NC(=O)[C@H](C)NC(=O)[C@H](CCCCN)NC(=O)[C@H](CCCCN)NC(=O)[C@H]2NC(=O)[C@H](Cc3c[nH]c4ccccc34)NC(=O)[C@H](Cc3c[nH]cn3)NC(=O)[C@@H](Cc3ccccc3)NC(=O)[C@H](Cc3c[nH]cn3)NC(=O)[C@@H]3CSCN3C(=O)[C@H](CSSC2(C)C)NC(=O)[C@H](Cc2c[nH]c3ccccc23)NC1=O) [Chem. 117]	168 nM	0.2 nM
cyclo(C[Thz]H[dF]HWCKR) (disulfide 1-7; SMILES N=C(N)NCCC[C@@H]1NC(=O)[C@H](CCCCN)NC(=O)[C@@H]2CSSC[C@H](NC1=O)C(=O)N1CSC[C@H]1C(=O)N[C@@H](Cc1c[nH]cn1)C(=O)N[C@H](Cc1ccccc1)C(=O)N[C@@H](Cc1c[nH]cn1)C(=O)N[C@@H](Cc1c[nH]c3ccccc13)C(=O)N2) [Chem. 118]	4380 nM	3.53 nM
cyclo(C[Thz]H[dF]HWCA[Orn]E[Orn]R) (disulfide 1-7; SMILES C[C@@H]1NC(=O)[C@@H]2CSSC[C@H](NC(=O)[C@H](CCCNC(=N)N)NC(=O)[C@H](CCCN)NC(=O)[C@H](CCC(=O)O)NC(=O)[C@H](CCCN)NC1=O)C(=O)N1CSC[C@H]1C(=O)N[C@@H](Cc1c[nH]cn1)C(=O)N[C@H](Cc1ccccc1)C(=O)N[C@@H](Cc1c[nH]cn1)C(=O)N[C@@H](Cc1c[nH]c3ccccc13)C(=O)N2) [Chem. 119]	99.6 nM	0.06 nM
cyclo(C[Thz]H[dF]HWCAHE[Orn]R) (disulfide 1-7; SMILES C[C@@H]1NC(=O)[C@@H]2CSSC[C@H](NC(=O)[C@H](CCCNC(=N)N)NC(=O)[C@H](CCCN)NC(=O)[C@H](CCC(=O)O)NC(=O)[C@H](Cc3c[nH]cn3)NC1=O)C(=O)N1CSC[C@H]1C(=O)N[C@@H](Cc1c[nH]cn1)C(=O)N[C@H](Cc1ccccc1)C(=O)N[C@@H](Cc1c[nH]cn1)C(=O)N[C@@H](Cc1c[nH]c3ccccc13)C(=O)N2) [Chem. 120]	294 nM	0.08 nM
cyclo(CPH[dF]HWCAH[dK][dK]R) (disulfide 1-7; SMILES C[C@@H]1NC(=O)[C@@H]2CSSC[C@H](NC(=O)[C@H](CCCNC(=N)N)NC(=O)[C@@H](CCCCN)NC(=O)[C@@H](CCCCN)NC(=O)[C@H](Cc3c[nH]cn3)NC1=O)C(=O)N1CCC[C@H]1C(=O)N[C@@H](Cc1c[nH]cn1)C(=O)N[C@H](Cc1ccccc1)C(=O)N[C@@H](Cc1c[nH]cn1)C(=O)N[C@@H](Cc1c[nH]c3ccccc13)C(=O)N2) [Chem. 121]	189 nM	0.24 nM
CAHFXWCAHFXW (D-Phe 4, 10; Arg(NO2) 5, 11; disulphide Cys1-Cys7; head-to-tail amide Cys1-Trp12) [Chem. 21]	> 4 nM	–
cyclo(C[dP]H[dF]RWC[dP]H[dF]RW) (disulfide 1-7; SMILES N=C(N)NCCC[C@@H]1NC(=O)[C@@H](Cc2ccccc2)NC(=O)[C@H](Cc2c[nH]cn2)NC(=O)[C@H]2CCCN2C(=O)[C@@H]2CSSC[C@H](NC(=O)[C@H](Cc3c[nH]c4ccccc34)NC1=O)C(=O)N1CCC[C@@H]1C(=O)N[C@@H](Cc1c[nH]cn1)C(=O)N[C@H](Cc1ccccc1)C(=O)N[C@@H](CCCNC(=N)N)C(=O)N[C@@H](Cc1c[nH]c3ccccc13)C(=O)N2) [Chem. 33]	> 1 nM	–
cyclo(C[dV]H[dF]RWC[dV]H[dF]RW) (disulfide 1-7; SMILES CC(C)[C@H]1NC(=O)[C@@H]2CSSC[C@H](NC(=O)[C@H](Cc3c[nH]c4ccccc34)NC(=O)[C@H](CCCNC(=N)N)NC(=O)[C@@H](Cc3ccccc3)NC(=O)[C@H](Cc3c[nH]cn3)NC1=O)C(=O)N[C@H](C(C)C)C(=O)N[C@@H](Cc1c[nH]cn1)C(=O)N[C@H](Cc1ccccc1)C(=O)N[C@@H](CCCNC(=N)N)C(=O)N[C@@H](Cc1c[nH]c3ccccc13)C(=O)N2) [Chem. 34]	2.6 nM	–
cyclo(C[Aib][Hyp][dF]RWC[Aib][Hyp][dF]RW) (disulfide 1-7; SMILES CC1(C)NC(=O)[C@@H]2CSSC[C@H](NC(=O)[C@H](Cc3c[nH]c4ccccc34)NC(=O)[C@H](CCCNC(=N)N)NC(=O)[C@@H](Cc3ccccc3)NC(=O)[C@@H]3C[C@@H](O)CN3C1=O)C(=O)NC(C)(C)C(=O)N1C[C@H](O)C[C@H]1C(=O)N[C@H](Cc1ccccc1)C(=O)N[C@@H](CCCNC(=N)N)C(=O)N[C@@H](Cc1c[nH]c3ccccc13)C(=O)N2) [Chem. 38]	> 3.7 nM	–
CXHFXWCXHFXW (Aib 2, 8; D-Phe 4, 10; Cit 5, 11; disulphide Cys1-Cys7; head-to-tail amide Cys1-Trp12) [Chem. 41]	137 nM	–
CXHFXWCXHFXW (Aib 2, 8; D-Phe 4, 10; AGP 5, 11; disulphide Cys1-Cys7; head-to-tail amide Cys1-Trp12) [Chem. 43]	46.9 nM	–
cyclo(C[Aib]H[dF][Dab]WC[Aib]H[dF][Dab]W) (disulfide 1-7; SMILES CC1(C)NC(=O)[C@@H]2CSSC[C@H](NC(=O)[C@H](Cc3c[nH]c4ccccc34)NC(=O)[C@H](CCN)NC(=O)[C@@H](Cc3ccccc3)NC(=O)[C@H](Cc3c[nH]cn3)NC1=O)C(=O)NC(C)(C)C(=O)N[C@@H](Cc1c[nH]cn1)C(=O)N[C@H](Cc1ccccc1)C(=O)N[C@@H](CCN)C(=O)N[C@@H](Cc1c[nH]c3ccccc13)C(=O)N2) [Chem. 46]	> 5.5 nM	–

Reference: patent US20200223889A1 (Novo Nordisk, published 2020)
